Experiments:
[1] = biological target: T1, TNFR2 (as used in the Octet measurement) (UniProt P20333 23-257, limits assumed); experiment: Octet (BLI), monovalent binding
T1 construct: Probably human soluble TNFR2; the legend says only TNFR2
T1 sequence (looked up): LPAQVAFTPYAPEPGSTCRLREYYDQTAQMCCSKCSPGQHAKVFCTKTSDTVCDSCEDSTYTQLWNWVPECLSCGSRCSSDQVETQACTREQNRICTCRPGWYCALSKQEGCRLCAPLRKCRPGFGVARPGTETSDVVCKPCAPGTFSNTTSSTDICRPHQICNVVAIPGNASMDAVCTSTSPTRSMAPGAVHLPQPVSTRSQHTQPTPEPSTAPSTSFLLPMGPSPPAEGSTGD

[2] = biological target: T2, human TNFR2 expressed on cells (human, UniProt P20333 23-461); experiment: flow cytometry on cells expressing human TNFR2, MFI median
T2 construct: whole, on cells; also called hTNFR2 (cell); CHO-TNFR2
T2 sequence (looked up): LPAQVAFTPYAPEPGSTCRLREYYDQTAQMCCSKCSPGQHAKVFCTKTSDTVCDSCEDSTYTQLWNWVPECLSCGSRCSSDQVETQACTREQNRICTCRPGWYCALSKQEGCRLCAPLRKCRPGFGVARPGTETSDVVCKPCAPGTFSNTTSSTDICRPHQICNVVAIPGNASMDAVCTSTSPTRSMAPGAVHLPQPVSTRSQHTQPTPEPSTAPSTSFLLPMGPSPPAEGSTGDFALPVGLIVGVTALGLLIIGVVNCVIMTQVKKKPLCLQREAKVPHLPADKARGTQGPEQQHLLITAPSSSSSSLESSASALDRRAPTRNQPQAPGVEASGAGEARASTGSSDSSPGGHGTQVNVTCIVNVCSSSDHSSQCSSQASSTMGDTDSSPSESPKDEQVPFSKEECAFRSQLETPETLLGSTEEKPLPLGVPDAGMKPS

[3] = biological target: T2, human TNFR2 expressed on cells; experiment: blocking of biotinylated TNF-α on TNFR2-CHO cells, flow cytometry
Experimental: TNFR2-overexpressing CHO cells were plated at 100,000 cells per well. Cells were incubated with the indicated antibodies for 30 minutes on ice. […] Cells were analyzed using Cytoflex or MACSQuant flow cytometer. Assay was repeated twice.

[4] = biological target: T3, human TNFR2-His tagged protein (soluble) (human, UniProt P20333 23-257); experiment: ELISA on coated hTNFR2-His, OD 450 nm
T3 construct: also called hTNFR2 (soluble); soluble TNFR2-His; not shown: His tag
T3 sequence (looked up): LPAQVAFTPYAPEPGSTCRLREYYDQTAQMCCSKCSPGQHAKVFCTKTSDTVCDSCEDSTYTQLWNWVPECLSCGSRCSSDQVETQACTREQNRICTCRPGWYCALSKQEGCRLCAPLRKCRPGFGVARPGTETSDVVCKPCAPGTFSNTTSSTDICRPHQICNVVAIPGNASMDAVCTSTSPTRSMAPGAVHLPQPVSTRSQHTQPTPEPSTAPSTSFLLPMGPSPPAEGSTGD

osteoprotegerin (OPG) = biological target: T4, osteoprotegerin (OPG) (UniProt O00300 22-401, limits assumed); experiment: ELISA on coated OPG, OD 650 nm
T4 sequence (looked up): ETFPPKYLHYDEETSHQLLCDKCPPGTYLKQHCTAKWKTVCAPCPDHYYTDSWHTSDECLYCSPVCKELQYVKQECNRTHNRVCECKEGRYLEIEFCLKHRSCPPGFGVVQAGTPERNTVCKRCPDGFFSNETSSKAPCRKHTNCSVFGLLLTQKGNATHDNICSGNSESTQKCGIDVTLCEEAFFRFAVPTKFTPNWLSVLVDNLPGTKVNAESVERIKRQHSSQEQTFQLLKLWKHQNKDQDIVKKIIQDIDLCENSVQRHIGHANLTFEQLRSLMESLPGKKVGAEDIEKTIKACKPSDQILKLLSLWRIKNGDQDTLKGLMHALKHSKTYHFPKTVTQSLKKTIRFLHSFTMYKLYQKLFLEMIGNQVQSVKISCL
Experimental: (§1) To test binding to TNFR family members, target proteins were coated on ELISA plates at 1 μg/mL at 4° C. overnight. Plates were washed, blocked, and antibodies were added at indicated concentrations for 1 hour at RT. Positive control antibodies for each protein were used at ˜1 ug/mL. Antibodies were washed and detected with anti-human IgG HRP for 1 hour. Assay was developed using TMB substrate for 10 minutes. For cell-binding, human CD4+ T cells purified from buffy coats were cultured in flat-bottom plates with anti-CD3/CD28 for 24 hours. Cells were harvested and stained for viability, CD4, CD25 and FOXP3. Test antibody staining was detected using anti-human IgG APC. Binding titration of test antibodies was evaluated on CD4+CD25hiFOXP3+ regulatory T cells and plotted as percent binding.

TNFR-Fc = biological target: T5, TNFR-Fc (UniProt P20333 23-257, limits assumed); experiment: TNF-α blocking ELISA (soluble)
T5 construct: Printed only as TNFR-Fc; not shown: Fc part
T5 sequence (looked up): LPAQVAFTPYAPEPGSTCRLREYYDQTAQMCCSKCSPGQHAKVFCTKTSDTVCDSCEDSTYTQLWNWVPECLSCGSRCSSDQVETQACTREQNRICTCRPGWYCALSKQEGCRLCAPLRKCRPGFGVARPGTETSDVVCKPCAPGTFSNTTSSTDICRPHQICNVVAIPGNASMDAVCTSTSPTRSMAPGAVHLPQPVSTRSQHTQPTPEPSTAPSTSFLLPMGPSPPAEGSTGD

death receptor 6 (DR6) = biological target: T6, death receptor 6 (DR6) (UniProt O75509 42-349, limits assumed); experiment: ELISA on coated DR6, OD 650 nm
T6 sequence (looked up): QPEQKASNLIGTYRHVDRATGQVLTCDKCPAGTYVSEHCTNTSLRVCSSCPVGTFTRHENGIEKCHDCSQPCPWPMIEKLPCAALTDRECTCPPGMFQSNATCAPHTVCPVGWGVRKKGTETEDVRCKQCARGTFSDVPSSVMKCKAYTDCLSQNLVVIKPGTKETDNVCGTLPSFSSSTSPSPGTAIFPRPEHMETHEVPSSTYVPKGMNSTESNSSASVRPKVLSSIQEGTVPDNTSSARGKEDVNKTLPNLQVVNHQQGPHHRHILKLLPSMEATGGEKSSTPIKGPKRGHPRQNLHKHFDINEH
Experimental: as §1

[5] = biological target: T7, cynomolgus TNFR2-His tagged protein (cynomolgus, UniProt A0A2K5VET2 132-366); experiment: ELISA, cynomolgus TNFR2
T7 construct: also called Cyno TNFR2; cynomolgus TNFR2 protein; not shown: His tag
T7 sequence: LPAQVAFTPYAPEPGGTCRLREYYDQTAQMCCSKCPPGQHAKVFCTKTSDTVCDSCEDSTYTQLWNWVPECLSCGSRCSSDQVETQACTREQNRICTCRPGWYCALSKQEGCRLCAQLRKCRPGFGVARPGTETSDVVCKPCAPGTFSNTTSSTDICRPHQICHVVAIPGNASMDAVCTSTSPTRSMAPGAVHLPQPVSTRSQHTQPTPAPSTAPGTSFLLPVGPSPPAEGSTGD

[6] = biological target: T3, human TNFR2-His tagged protein (soluble); experiment: ELISA, soluble human TNFR2
[7] = biological target: T2, human TNFR2 expressed on cells; experiment: cell binding on TNFR2-overexpressing (OE) cells
[8] = biological target: T2, human TNFR2 expressed on cells; experiment: cell-based or functional assay
[9] = biological target: T2, human TNFR2 expressed on cells; experiment: flow cytometry, cell-expressed human TNFR2
[10] = biological target: T8, human TNFR1-His tagged protein (human, UniProt P19438 30-211, limits assumed); experiment: ELISA on coated TNFR1, OD 450 nm
T8 construct: also called soluble human TNFR1; not shown: His tag
T8 sequence (looked up): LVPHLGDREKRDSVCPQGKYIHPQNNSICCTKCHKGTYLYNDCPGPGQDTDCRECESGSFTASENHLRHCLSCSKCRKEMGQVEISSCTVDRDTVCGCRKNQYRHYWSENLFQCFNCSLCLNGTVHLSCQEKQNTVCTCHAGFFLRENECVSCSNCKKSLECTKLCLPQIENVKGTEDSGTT
Experimental: as §1

[11] = biological target: T9, herpesvirus entry mediator (HVEM) (UniProt Q92956 39-202, limits assumed); experiment: ELISA on coated HVEM, OD 650 nm
T9 sequence (looked up): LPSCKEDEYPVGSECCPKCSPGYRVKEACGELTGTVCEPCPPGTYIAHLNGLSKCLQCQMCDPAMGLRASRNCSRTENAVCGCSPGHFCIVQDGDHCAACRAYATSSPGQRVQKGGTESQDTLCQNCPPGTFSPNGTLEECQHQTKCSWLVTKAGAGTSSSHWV
Experimental: as §1

CD40 = CD40 (UniProt P25942 21-193, limits assumed); experiment: ELISA on coated CD40, OD 650 nm
Chain of CD40 (P25942 21-193 limits assumed): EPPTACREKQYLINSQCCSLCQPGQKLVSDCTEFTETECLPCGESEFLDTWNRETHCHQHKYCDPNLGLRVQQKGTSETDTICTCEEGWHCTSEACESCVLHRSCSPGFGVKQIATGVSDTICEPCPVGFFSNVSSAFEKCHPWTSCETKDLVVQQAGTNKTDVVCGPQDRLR
Experimental: as §1

[12] = biological target: T2, human TNFR2 expressed on cells; experiment: Primary Cell Affinity; binding titration on activated human Tregs, flow cytometry
Experimental: as §1

B1: humanized antibody h600-25-108 (antibody, V domains shown)
VH: EVQLVESGGGLVQPGGSLRLSCAASGFSLSDYFMTWVRQAPGKGLEWVGIINTGGDSYYATWAKGRFTISRDNSKNTLYLQMNSLRAEDTAVYYCARDTGYGGYDYAGSFDPWGQGTLVTVSS
VL: DIQMTQSPSSVSASVGDRVTITCQASENINSWLAWYQQKPGKAPKLLIYEASKLASGVPSRFSGSGSGTDFTLTISSLQPEDFATYYCQQGYIYIDVGNIFGGGTKVEIK
With B1 the koff [1] was 0.000233 s⁻¹, the kon [1] was 376000 M⁻¹ s⁻¹ and the “EC50 (read off the curve)” value [2] was ~0.3 nM. For the same binder, the IC50 [3] was 0.198 nM, the “EC50 (read off the curve)” value [4] was ~0.1 nM and the binding result (osteoprotegerin (OPG)) was “no binding (tested: about 67 nM)”. The IC50 (TNFR-Fc) was 1.33 nM, the binding result (death receptor 6 (DR6)) was “no binding (tested: about 67 nM)” and the EC50 [5] was 0.046 nM. For the same binder, the EC50 [6] was 0.105 nM, the Kd [7] was 0.0994 nM and the “ADCC EC50 (reporter line)” value [8] was 1.14 nM. For the same binder, the “ADCP EC50” value [8] was 0.92 nM, the EC50 [9] was 0.31 nM and the binding result [10] was “no binding (tested: about 67 nM)”. For the same binder, the binding result [11] was “no binding (tested: about 67 nM)”, the binding result (CD40) was “no binding (tested: about 67 nM)” and the Kd [12] was 0.05 nM.

Reference: patent US20220372154A1 (APEXIGEN, published 2022)
